Results as given in patent EP4786492A1 (Simcere Zaiming Pharmaceutical Co., Ltd., dated 2026).

T1: human DLL3-his protein (human, UniProt Q9NYJ7 27-492)
T1 construct: also called human DLL3 protein; DLL3 antigen protein; not shown: His tag
T1 sequence: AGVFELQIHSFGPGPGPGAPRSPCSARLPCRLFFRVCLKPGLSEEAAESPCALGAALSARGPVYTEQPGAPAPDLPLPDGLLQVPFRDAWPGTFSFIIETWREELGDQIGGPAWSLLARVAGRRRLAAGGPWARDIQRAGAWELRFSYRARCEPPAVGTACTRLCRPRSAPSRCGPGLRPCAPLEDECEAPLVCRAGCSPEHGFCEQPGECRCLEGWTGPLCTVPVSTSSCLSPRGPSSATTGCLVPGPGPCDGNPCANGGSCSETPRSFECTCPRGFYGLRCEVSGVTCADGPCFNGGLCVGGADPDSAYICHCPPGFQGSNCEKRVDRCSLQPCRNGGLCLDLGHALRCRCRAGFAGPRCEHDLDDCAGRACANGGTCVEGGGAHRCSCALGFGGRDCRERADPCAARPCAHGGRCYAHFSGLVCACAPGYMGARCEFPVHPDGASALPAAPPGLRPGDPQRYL

T2: monkey DLL3 on CHO K1-cyno DLL3 cells (cynomolgus monkey)
T2 construct: also called monkey DLL3 recombinant cell line
T2 chain: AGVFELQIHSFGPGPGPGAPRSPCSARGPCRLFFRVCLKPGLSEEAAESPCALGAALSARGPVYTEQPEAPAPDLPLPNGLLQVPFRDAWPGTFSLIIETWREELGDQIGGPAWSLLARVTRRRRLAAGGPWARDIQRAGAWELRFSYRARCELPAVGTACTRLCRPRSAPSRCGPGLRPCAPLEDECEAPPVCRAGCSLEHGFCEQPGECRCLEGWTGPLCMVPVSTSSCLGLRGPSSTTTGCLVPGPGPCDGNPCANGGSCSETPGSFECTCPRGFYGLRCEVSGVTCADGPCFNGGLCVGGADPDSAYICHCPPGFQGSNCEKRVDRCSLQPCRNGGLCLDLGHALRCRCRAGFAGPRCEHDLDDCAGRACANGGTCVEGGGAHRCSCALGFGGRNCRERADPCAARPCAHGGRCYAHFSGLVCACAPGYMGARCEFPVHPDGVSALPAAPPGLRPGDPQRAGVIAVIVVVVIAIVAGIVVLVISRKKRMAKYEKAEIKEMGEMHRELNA

B1: mab009 scFv-hFc (Fc fusion)
scFv (part 1 of 2): DIVMTQSPATLSVTPGDRVSLSCRASQTISDYLHWYQQRSHESPRLLIKYASQSISGIPSRFSGSGSGSDFTLSINSVEPEDVGVYYCQNGHSFPLTFGAGTKLELK
scFv (part 2 of 2): EVQLQQSGTVLARPGASVKMSCKTSGYTFTSYWMHWVKQSPGQGLEWIGTIYPGNSDTRYNQKFKDKAYVTAVTSASTAYMELSSLTNEESAVYYCTRSYDYGDLDYWGQGTTLTVSS
notes: human-murine chimeric scFv-hFc, VL-linker-VH-human IgG1 Fc; not shown: linker; Fc fragment of human IgG1
B2: mab010 scFv-hFc (Fc fusion)
scFv (part 1 of 2): DIQMTQSPASLSVSVGETVTITCRASENINSNLAWYQQKQGKSPQLLVYAATNLADGVPSRFSGSGSGTQFSLKISGLQSEDFGSYYCQHFWGLPWTFGGGTKLEIR
scFv (part 2 of 2): QVQLQQSGAELARPGASMKLSCKASGYTFTSYGISWVKQITGQGLEWIGEIFPRSGNTYDNENFRGKATLTADKSSSTAYLEVRSLTSEDSAVYFCARTTVFAPYYFDYWGQGTTLTVSS
notes: as for B1
B3: mab015 scFv-hFc (Fc fusion)
scFv (part 1 of 2): NIVMTQSPKSMSMSVGERVTLSCKASENVGTYVSWFQQKPEQSPKLLIYGASNRYTGVPDRFTGSGSATDFTLTISSVQAEDLADYHCGQFYSFPCTFGGGTKLEIK
scFv (part 2 of 2): EVKLEESGGGLVQPGGSMKLSCVASGITFSNFWMNWVRQSPEKGLEWVAQIRLKSDDYATHYAESVKGRFTISRDDSKGSVYLQMNNLRTEDTGIHYCTTGYYFDYWGQGTTLTVSS
notes: as for B1

Columns and labels:
[1] = biological target: T1, human DLL3-his protein; experiment: ELISA
[2] = biological target: T2, monkey DLL3 on CHO K1-cyno DLL3 cells; experiment: FACS, CHO K1-cyno DLL3 cells

| Binder | binding result [1] | binding result [2] |
| --- | --- | --- |
| B1 | binds |  |
| B2 | binds | binds |
| B3 | binds | binds |
